Data: publication PMC6475807

Molecular target: ^cchexAFG3L2 (human) (UniProt Q9Y4W6)
Test: SEC

- stoichiometry N: 6
Substance: ^cchexAFG3L2 (from UniProt Q9Y4W6 272-797) (enzyme)
